Drawing on paper PMC4046962, this text covers stoichiometry N for one substance.

The experiment addresses SiaM (Streptomyces sp. A7248). The experiment can be described thus: small-angle X-ray scattering (SAXS); SiaM in 10 mM Na2HPO4, 1.8 mM KH2PO4, 400 mM Na2SO4, pH 8.3, 4°C; curves of monomer, two dimers and tetramer fitted with CRYSOL; mixture analysed with OLIGOMER

For orientation: stoichiometry N means a count of units in the complex or per binding partner. Turning to SiaM (enzyme), the stoichiometry N was found to be 4.
